Experimental data reported in the supplement of paper PMC9233669.
Variants at the floor of the assay were thinned out.

How the values were obtained:
biotinyl-Leu-oxazolone = test: self-aminoacylation, catalytic enhancement (BLO) (fold over background); higher = more active; k-Seq, kA / k0A0; sequences stand for … in GGGAAUGGAUCCACAUCUACGAAUUC…UUCACUGCAGACUUGACGAAGCUG
Procedure, shortened: (§1)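 Catalytic enhancement equals the median kA over the uncatalyzed rate, the latter read from the low-activity peak of a bimodal Gaussian fit. Values of kA came from fitting each sequence's fraction reacted to a pseudo-first-order model, with 1000 bootstraps. Reacted RNA was captured with streptavidin and quantified by triplicate qPCR and Illumina sequencing after 90 minutes at room temperature with 2–1250 μM biotinyl-aminoacyl-oxazolone and 0.43 μM mutagenized RNA pools bearing a 21-nt variable region.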

biotinyl-Met-oxazolone = test: self-aminoacylation, catalytic enhancement (BMO) (fold over background); higher = more active; k-Seq, kA / k0A0; sequences stand for … in GGGAAUGGAUCCACAUCUACGAAUUC…UUCACUGCAGACUUGACGAAGCUG
Procedure, shortened: as §1

biotinyl-Val-oxazolone = test: self-aminoacylation, catalytic enhancement (BVO) (fold over background); higher = more active; k-Seq, kA / k0A0; sequences stand for … in GGGAAUGGAUCCACAUCUACGAAUUC…UUCACUGCAGACUUGACGAAGCUG
Procedure, shortened: as §1

biotinyl-Phe-oxazolone = test: self-aminoacylation, catalytic enhancement (BFO) (fold over background); higher = more active; k-Seq, kA / k0A0; sequences stand for … in GGGAAUGGAUCCACAUCUACGAAUUC…UUCACUGCAGACUUGACGAAGCUG
Procedure, shortened: as §1

biotinyl-Trp-oxazolone = test: self-aminoacylation, catalytic enhancement (BWO) (fold over background); higher = more active; k-Seq, kA / k0A0; sequences stand for … in GGGAAUGGAUCCACAUCUACGAAUUC…UUCACUGCAGACUUGACGAAGCUG
Procedure, shortened: as §1

biotinyl-Ile-oxazolone = test: self-aminoacylation, catalytic enhancement (BIO) (fold over background); higher = more active; k-Seq, kA / k0A0; sequences stand for … in GGGAAUGGAUCCACAUCUACGAAUUC…UUCACUGCAGACUUGACGAAGCUG
Procedure, shortened: as §1

| Sequence | self-aminoacylation (biotinyl-Leu-oxazolone) | self-aminoacylation (biotinyl-Met-oxazolone) | self-aminoacylation (biotinyl-Val-oxazolone) | self-aminoacylation (biotinyl-Phe-oxazolone) | self-aminoacylation (biotinyl-Trp-oxazolone) | self-aminoacylation (biotinyl-Ile-oxazolone) |
| --- | --- | --- | --- | --- | --- | --- |
| AUCCACGUAGGUCAUCGGGUG [Fam2.2 aminoacylation ribozyme variant] | 4.88 | 4.61 | 4.96 | 37.4 | 4.86 | 3.4 |
| AUCCACUUAGGUCAUCGGGUG [Fam2.2 aminoacylation ribozyme variant] | 8.6 | 6.88 | 4.85 | 63.8 | 7.26 | 5.19 |
| AUCCCCCUAGGUCAUCGGGUG [Fam2.2 aminoacylation ribozyme variant] | 17.6 | 13.3 | 8.74 | 132 | 12.6 | 8.62 |
| AUGACCCUGGUCAACGAGUGA [Fam2.1 aminoacylation ribozyme variant] | 6.02 | 5.77 | 3.52 | 32.5 | 6.86 | 3.48 |
| AUGACCCUGGUCAUCGAGUUA [Fam2.1 aminoacylation ribozyme variant] | 5.29 | 6.25 | 2.44 | 9.13 | 3.71 | 2.81 |
| AUGACCCUGGUCAUCGCGUGA [Fam2.1 aminoacylation ribozyme variant] | 17.1 | 16 | 7.53 | 126 | 19.7 | 7.46 |
| AUGACUCUGGUCAUCGAGUGA [Fam2.1 aminoacylation ribozyme variant] | 5.16 | 4.86 | 2.75 | 23.2 | 5.56 | 2.62 |
| AUGAUUGCUAAUAGUCGCAAG [Fam3.1 aminoacylation ribozyme variant] | 1.53 | 1.67 | 1.24 | 2.06 | 1.61 | 1.34 |
| AUGCACCAAGGUCAUCGGGUG [Fam2.2 aminoacylation ribozyme variant] | 9.2 | 7.84 | 5.23 | 59.9 | 9.96 | 4.95 |
| AUGCACCUAGAUCAUCGGGUG [Fam2.2 aminoacylation ribozyme variant] | 2.64 | 2.41 | 2.69 | 10.6 | 3.8 | 2.13 |
| AUGCACCUAGGACAUCGGGUG [Fam2.2 aminoacylation ribozyme variant] | 4.43 | 3.57 | 2.54 | 19.4 | 5.58 | 3.37 |
| AUGCACCUAGGGCAUCGGGUG [Fam2.2 aminoacylation ribozyme variant] | 3.16 | 3.04 | 3.46 | 30.6 | 4.75 | 2.89 |
| AUGCACCUAGGUCAUCGAGUG [Fam2.2 aminoacylation ribozyme variant] | 3.96 | 3.33 | 2.56 | 4.83 | 3.75 | 2.61 |
| AUGCACCUAGGUCAUCGGGAG [Fam2.2 aminoacylation ribozyme variant] | 1.54 | 1.39 | 1.51 | 1.08 | 1.94 | 1.56 |
| AUGCACCUAGGUCAUCGGUUG [Fam2.2 aminoacylation ribozyme variant] | 1.28 | 1.26 | 1.24 | 5.04 | 1.48 | 1.42 |
| AUGCACCUAGGUCAUCGUGUG [Fam2.2 aminoacylation ribozyme variant] | 0.934 | 1.18 | 1.04 | 4.56 | 0.926 | 1.04 |
| AUGCACCUAGGUCCUCGGGUG [Fam2.2 aminoacylation ribozyme variant] | 5.43 | 3.7 | 3.19 | 27.2 | 5.64 | 3.44 |
| AUGCACCUAGGUCGUCGGGUG [Fam2.2 aminoacylation ribozyme variant] | 2.42 | 1.75 | 1.8 | 8.26 | 2.39 | 1.68 |
| AUGCACCUAUGUCAUCGGGUG [Fam2.2 aminoacylation ribozyme variant] | 5.19 | 4.11 | 2.48 | 26.4 | 4.24 | 2.81 |
| AUGCACCUCGGUCAUCGGGUG [Fam2.2 aminoacylation ribozyme variant] | 6.47 | 5.38 | 3.86 | 32.6 | 6.81 | 4.1 |
| AUGCACCUGGGUCAUCGGGUG [Fam2.2 aminoacylation ribozyme variant] | 3.18 | 4.33 | 3.8 | 21.2 | 3.63 | 3.37 |
| AUGCAUCUAGGUCAUCGGGUG [Fam2.2 aminoacylation ribozyme variant] | 9.38 | 8.33 | 5.41 | 57 | 9.62 | 5.83 |
| AUGCCCCUGGUCAUCGAGUGA [Fam2.1 aminoacylation ribozyme variant] | 10.2 | 9.73 | 5.59 | 38.4 | 10 | 5.14 |
| AUGCUCCUAGGUCAUCGGGUG [Fam2.2 aminoacylation ribozyme variant] | 8.92 | 7.47 | 4.4 | 37.6 | 7.13 | 5.26 |
| AUGCUUCAAACAAUCGGUCUG [Fam1A.1 aminoacylation ribozyme variant] | 3.36 | 2.1 | 1.99 | 129 | 50.6 | 2.25 |
| AUGGACCUAGGUCAUCGGGUG [Fam2.2 aminoacylation ribozyme variant] | 4.55 | 3.77 | 3.04 | 22 | 4.36 | 3.46 |

| Sequence | self-aminoacylation (biotinyl-Leu-oxazolone) | self-aminoacylation (biotinyl-Met-oxazolone) | self-aminoacylation (biotinyl-Val-oxazolone) | self-aminoacylation (biotinyl-Phe-oxazolone) | self-aminoacylation (biotinyl-Trp-oxazolone) | self-aminoacylation (biotinyl-Ile-oxazolone) |
| --- | --- | --- | --- | --- | --- | --- |
| AUGGCCCUGGUCAUCGAGUGA [Fam2.1 aminoacylation ribozyme variant] | 84.6 | 82.9 | 29.1 | 729 | 76.5 | 27.1 |
| AUGUACCUAGGUCAUCGGGUG [Fam2.2 aminoacylation ribozyme variant] | 5.37 | 5.49 | 3.08 | 34 | 5.8 | 3.62 |
| AUGUCCCUGGUCAUCGAGUGA [Fam2.1 aminoacylation ribozyme variant] | 40.9 | 44.2 | 17.2 | 246 | 41.4 | 15.1 |
| AUGUCUGCUAAUAGUCGCAAG [Fam3.1 aminoacylation ribozyme variant] | 1.74 | 2.25 | 1.56 | 35.5 | 9.53 | 1.91 |
| AUGUUAGCUAAUAGUCGCAAG [Fam3.1 aminoacylation ribozyme variant] | 1.39 | 1.45 | 1.29 | 1.84 | 0.993 | 1.57 |
| AUGUUCGCUAAUAGUCGCAAG [Fam3.1 aminoacylation ribozyme variant] | 1.14 | 1.65 | 1.55 | 3.79 | 1.67 | 1.58 |
| AUGUUUACUAAUAGUCGCAAG [Fam3.1 aminoacylation ribozyme variant] | 1.52 | 1.61 | 1.7 | 1.92 | 2.07 | 1.67 |
| AUGUUUGCCAAUAGUCGCAAG [Fam3.1 aminoacylation ribozyme variant] | 1.14 | 1.64 | 1.33 | 1.82 | 1.15 | 1.53 |
| AUGUUUGCUAAGAGUCGCAAG [Fam3.1 aminoacylation ribozyme variant] | 1.39 | 1.35 | 1.28 | 2.16 | 1.68 | 1.35 |
| AUGUUUGCUAAUAGUCGCAAC [Fam3.1 aminoacylation ribozyme variant] | 1.04 | 1.05 | 1.05 | 1.82 | 1.08 | 1.15 |
| AUGUUUGCUAAUAGUCGCGAG [Fam3.1 aminoacylation ribozyme variant] | 1.48 | 1.57 | 1.65 | 3.75 | 2.18 | 1.65 |
| AUGUUUGCUAAUCGUCGCAAG [Fam3.1 aminoacylation ribozyme variant] | 1.32 | 1.13 | 1.44 | 1.59 | 1.01 | 1.32 |
| AUGUUUGCUAAUUGUCGCAAG [Fam3.1 aminoacylation ribozyme variant] | 1.64 | 1.41 | 1.17 | 1.81 | 2.13 | 1.38 |
| AUGUUUGCUAGUAGUCGCAAG [Fam3.1 aminoacylation ribozyme variant] | 0.911 | 1.15 | 0.827 | 1.15 | 0.975 | 0.957 |
| AUUAAACUAGGUCAUCGGGUG [Fam2.2 aminoacylation ribozyme variant] | 5.02 | 3.79 | 3.11 | 23 | 4.43 | 2.89 |
| AUUAACCCGGUCAUCGAGUGA [Fam2.1 aminoacylation ribozyme variant] | 7.87 | 7.21 | 4.15 | 54.5 | 9.1 | 3.71 |
| AUUAACCGGGUCAUCGAGUGA [Fam2.1 aminoacylation ribozyme variant] | 7.07 | 6.03 | 3.29 | 36 | 7.04 | 3.38 |
| AUUAACCUAGGUCAUCGAGUG [Fam2.2 aminoacylation ribozyme variant] | 11.7 | 8.83 | 5.78 | 17.9 | 4.39 | 7.02 |
| AUUAACCUAGGUCGUCGGGUG [Fam2.2 aminoacylation ribozyme variant] | 2.01 | 1.7 | 1.42 | 3.08 | 1.42 | 1.38 |
| AUUAACCUAGGUGAUCGGGUG [Fam2.2 aminoacylation ribozyme variant] | 3.63 | 3.25 | 2.1 | 8.95 | 2.9 | 2.31 |
| AUUAACCUGGACAUCGAGUGA [Fam2.1 aminoacylation ribozyme variant] | 6.88 | 6.63 | 2.89 | 32.9 | 8.58 | 2.99 |
| AUUAACCUGGGCAUCGAGUGA [Fam2.1 aminoacylation ribozyme variant] | 5.72 | 4.66 | 2.6 | 20.5 | 5.8 | 2.63 |
| AUUAACCUGGUAAUCGAGUGA [Fam2.1 aminoacylation ribozyme variant] | 9.73 | 8.82 | 4.05 | 52.9 | 11.3 | 3.86 |
| AUUAACCUGGUCAUAGAGUGA [Fam2.1 aminoacylation ribozyme variant] | 4.78 | 4.3 | 2.55 | 17.4 | 6.17 | 2.31 |
| AUUAACCUGGUCAUCGAGCGA [Fam2.1 aminoacylation ribozyme variant] | 1.68 | 1.88 | 1.5 | 1.01 | 1.37 | 1.79 |
